{"source": "patent US20210060185", "key": {"[1]": {"molecular_target": "T1, WT C-His Ana GvpC", "T1 chain": "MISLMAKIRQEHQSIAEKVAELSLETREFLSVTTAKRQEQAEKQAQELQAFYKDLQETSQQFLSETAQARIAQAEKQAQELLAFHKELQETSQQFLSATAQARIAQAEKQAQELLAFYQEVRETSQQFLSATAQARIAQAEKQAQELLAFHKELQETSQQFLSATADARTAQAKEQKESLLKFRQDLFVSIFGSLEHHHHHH"}, "[2]": {"molecular_target": "T2, C-His Ana GvpC with calpain cleavage site (engineered Anabaena flos-aquae GvpC, calpain-sensitive)", "T2 chain": "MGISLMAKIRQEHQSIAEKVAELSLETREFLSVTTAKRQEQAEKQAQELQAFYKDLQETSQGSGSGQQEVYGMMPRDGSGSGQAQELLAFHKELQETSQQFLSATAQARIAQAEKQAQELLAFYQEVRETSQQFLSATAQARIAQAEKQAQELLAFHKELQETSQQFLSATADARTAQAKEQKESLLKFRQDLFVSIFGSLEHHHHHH"}, "[3]": {"molecular_target": "T3, C-His Ana GvpC with TEV cleavage site (engineered Anabaena flos-aquae GvpC, TEV-sensitive)", "T3 chain": "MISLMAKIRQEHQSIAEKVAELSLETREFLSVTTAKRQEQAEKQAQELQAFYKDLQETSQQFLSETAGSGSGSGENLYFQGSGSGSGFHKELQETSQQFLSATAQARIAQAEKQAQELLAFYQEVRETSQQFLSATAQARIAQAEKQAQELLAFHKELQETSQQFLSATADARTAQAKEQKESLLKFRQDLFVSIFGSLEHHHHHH"}}}
{"protein": "calpain-1 from porcine erythrocytes (protein) chain 1: MAEEVITPVYCTGVSAQVQKLRAKELGLGRHENAIKYLGQDYEQLRAHCLQSGSLFRDEAFPPVPQSLGFKELGPNSSKTYGVKWKRPTELFSNPQFIVDGATRTDICQGALGDCWLLAAIASLTLNDTLLHRVVPHGQSFQNGYAGIFHFQLWQFGEWVDVVVDDLLPTKDGKLVFVHSAQGNEFWSALLEKAYAKVNGSYEALSGGSTSEGFEDFTGGVTEWYELRKAPSDLYSIILKALERGSLLGCSIDISSVLDMEAVTFKKLVKGHAYSVTGAKQVNYQGQMVNLIRMRNPWGEVEWTGAWSDGSSEWNGVDPYQRDQLRVRMEDGEFWMSFRDFLREFTRLEICNLTPDALKSQRVRNWNTTLYEGTWRRGSTAGGCRNYPATFWVNPQFKIRLEETDDPEDDYGGRESGCSFVLALMQKHRRRERRFGRDMETIGFAVYEVPPELVGQPVHLKRDFFLANASRARSEQFINLREVSTRFRLPPGEYVVVPSTFEPNKEGDFVLRFFSEKKAGTQELDDQVQAILPDEQVLSEEEIDENFKALFRQLAGEDMEISVRELRTILNRIISKHKDLRTKGFSLESCRSMVNLMDRDGNGKLGLVEFNILWNRIRNYLSIFRKFDLDKSGSMSAYEMRMAIESAGFKLNKKLFELIITRYSEPDLAVDFDNFVCCLVRLETMFRFFKTLDTDLDGVVTFDLFKWLQLTMFA chain 2: MFLVNSFLKGGGGGGGGGGGLGGGLGNVLGGLISGAGGGGGGGGGGGGGGGGGGTAMRILGGVISAISEAAAQYNPEPPPPRTHYSNIEANESEEVRQFRRLFAQLAGDDMEVSATELMNILNKVVTRHPDLKTDGFGIDTCRSMVAVMDSDTTGKLGFEEFKYLWNNIKKWQAIYKQFDVDRSGTIGSSELPGAFEAAGFHLNEHLYSMIIRRYSDEGGNMDFDNFISCLVRLDAMFRAFKSLDKDGTGQIQVNIQEWLQLTMYS", "values": [{"measurement": "cleavage on SDS-PAGE, GV collapse pressure and ultrasound response", "setting": "[1]", "result": "showed no proteolytic cleavage, change in GV collapse pressure or ultrasound response, after incubation with calcium-activated calpain"}, {"measurement": "cleavage on Coomassie-stained SDS-PAGE", "setting": "[2]", "result": "Electrophoretic analysis confirmed cleavage and partial dissociation of the cleaved fragments from the GV surface"}, {"measurement": "collapse pressure after exposure to calpain and calcium (FIG. 8B)", "setting": "[2]", "result": "˜290 kPa compared to 336-344 kPa"}, {"measurement": "hydrostatic collapse pressure (pressurized absorbance spectroscopy)", "setting": "[2]", "result": "an approximately 50 kPa decrease in hydrostatic collapse pressure in the presence of the enzyme and its ionic activator"}, {"measurement": "nonlinear (x-AM) ultrasound contrast", "setting": "[2]", "result": "the maximal nonlinear sensor contrast of GVScalp of approximately 7 dB"}, {"measurement": "nonlinear contrast to noise ratio with calpain and calcium (FIG. 8G)", "setting": "[2]", "result": "(+Calp/+Ca^2+) shows a stronger nonlinear ratio (CNR=10.3)"}]}
{"protein": "recombinant TEV protease (Tobacco etch virus protease) (protein) GESLFKGPRDYNPISSTICHLTNESDGHTTSLYGIGFGPFIITNKHLFRRNNGTLLVQSLHGVFKVKNTTTLQQHLIDGRDMIIIRMPKDFPPFPQKLKFREPQREERICLVTTNFQTKSMSSMVSDTSCTFPSSDGIFWKHWIQTKDGQCGSPLVSTRDGFIVGIHSASNFTNTNNYFTSVPKNFMELLTNQEAQQWVSGWRLNADSVLWGGHKVFMSKPEEPFQPVKEATQLMNELVYSQ", "values": [{"measurement": "hydrostatic collapse pressure, nonlinear acoustic contrast and cleavage on SDS-PAGE", "setting": "[1]", "result": "showed no difference in their hydrostatic collapse pressure or nonlinear acoustic contrast in response to TEV protease (FIGS. 7I-7K), and no wild-type GvpC cleavage was seen upon gel electrophoresis"}, {"measurement": "cleavage on Coomassie-stained SDS-PAGE", "setting": "[3]", "result": "gel electrophoresis of GVSTEV after exposure to active TEV resulted in the appearance of the two cleaved GvpC fragments and a significant reduction in the intact GvpC band"}, {"measurement": "hydrostatic collapse pressure midpoint (pressurized absorbance spectroscopy)", "setting": "[3]", "result": "˜70 kPa reduction in its collapse pressure midpoint upon incubation with the active TEV protease"}, {"measurement": "nonlinear (x-AM) ultrasound contrast-to-noise ratio enhancement", "setting": "[3]", "result": "a maximal contrast-to-noise ratio (CNR) enhancement of ˜7 dB at an applied acoustic pressure of 438 kPa"}]}
